Our source for the EC50 (luciferase reporter, PD-1/PD-L1 blockade MOA assay; blocked partner: PD-1 on Jurkat-PD1 cells) and Kd values is patent US20240067728A1.

Usually Kd stands for the concentration at which binding is half-saturated. Higher therefore signals a looser complex.

In assay [1] the target is PD-L1 on CHO-PD-L1 cells (Promega PD-1/PD-L1 Blockade Bioassay) (UniProt Q9NZQ7).
The target in assay [2] is PD-L1-His antigen (human) (UniProt Q9NZQ7). Kind of assay: SPR (Biacore T200), PD-L1-His immobilised on chip, antibody as mobile phase, 1:1 Binding fit.
PD-L1-His antigen (human), sequence (Q9NZQ7 other isoform, or with tags, fused parts or gaps limits assumed): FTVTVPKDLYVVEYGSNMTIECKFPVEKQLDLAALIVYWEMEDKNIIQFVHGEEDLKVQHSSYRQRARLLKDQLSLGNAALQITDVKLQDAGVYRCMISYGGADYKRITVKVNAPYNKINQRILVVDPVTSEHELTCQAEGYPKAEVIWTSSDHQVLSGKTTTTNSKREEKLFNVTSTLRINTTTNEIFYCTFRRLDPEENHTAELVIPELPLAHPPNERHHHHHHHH

PD-L1 on CHO-PD-L1 cells (Promega PD-1/PD-L1 Blockade Bioassay), sequence (Q9NZQ7 19-290 limits assumed): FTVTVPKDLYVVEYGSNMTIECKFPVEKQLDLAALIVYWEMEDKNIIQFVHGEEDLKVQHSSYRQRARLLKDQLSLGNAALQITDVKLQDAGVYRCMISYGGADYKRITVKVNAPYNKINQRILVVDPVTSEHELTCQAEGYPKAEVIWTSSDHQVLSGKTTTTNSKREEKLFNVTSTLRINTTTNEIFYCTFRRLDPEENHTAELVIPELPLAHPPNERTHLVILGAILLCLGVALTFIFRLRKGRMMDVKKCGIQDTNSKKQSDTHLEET

With “ATE antibody (amino acid sequence identical to atezolizumab)”, the EC50 (luciferase reporter, PD-1/PD-L1 blockade MOA assay; blocked partner: PD-1 on Jurkat-PD1 cells) in assay [1] is 0.087 µg/mL. The substance also had an equilibrium dissociation constant (Kd) in assay [2] of 1.84 nM.
